Measured values taken from PMC11587861, “A high-throughput search for intracellular factors that affect RNA folding identifies E. coli proteins PepA and YagL as RNA chaperones that promote RNA remodelling”.

What was measured:
PepA-H6 = biological target: T1, PepA-H6 (Escherichia coli, UniProt P68767 1-503); experiment: filter binding; 75 mM Tris-HCl pH 7.5, 0.4 mM spermidine, 0.1 mM MgCl2, 50 mM NaCl, 0.5 mM EDTA, 0.25 mM DTT, 6% glycerol; 10 min at room temperature; 50 fmol RNA in 60 µL, protein 0-10 µM; settings: protein: recombinant, tags: C-terminal His6, chain copies: 6, label: 5'-32P (printed as [31]P)
T1 sequence: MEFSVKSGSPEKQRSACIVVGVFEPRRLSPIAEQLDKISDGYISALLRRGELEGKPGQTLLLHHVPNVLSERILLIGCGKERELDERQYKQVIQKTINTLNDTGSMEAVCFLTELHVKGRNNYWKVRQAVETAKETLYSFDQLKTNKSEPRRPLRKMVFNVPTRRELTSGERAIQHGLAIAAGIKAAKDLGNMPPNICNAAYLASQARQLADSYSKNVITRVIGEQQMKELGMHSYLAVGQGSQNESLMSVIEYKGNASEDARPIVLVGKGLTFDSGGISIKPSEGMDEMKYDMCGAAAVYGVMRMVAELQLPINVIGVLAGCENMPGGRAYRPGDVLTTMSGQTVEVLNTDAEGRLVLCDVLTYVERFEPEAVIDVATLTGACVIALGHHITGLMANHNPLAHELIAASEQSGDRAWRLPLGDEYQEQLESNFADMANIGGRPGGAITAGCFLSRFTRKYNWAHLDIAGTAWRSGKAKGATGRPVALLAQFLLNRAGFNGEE

YagL-H6 = biological target: T2, YagL-H6 (Escherichia coli, UniProt P77607 1-232); experiment: as above; settings: protein: recombinant, label: 5'-32P (printed as [31]P)
T2 sequence: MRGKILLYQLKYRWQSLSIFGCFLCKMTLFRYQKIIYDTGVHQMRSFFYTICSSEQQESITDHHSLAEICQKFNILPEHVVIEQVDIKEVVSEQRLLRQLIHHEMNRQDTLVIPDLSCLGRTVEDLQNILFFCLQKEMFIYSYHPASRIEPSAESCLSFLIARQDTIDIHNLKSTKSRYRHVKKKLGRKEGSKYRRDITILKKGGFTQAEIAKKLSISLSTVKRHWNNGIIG

B1: 21 R+ (ssRNA)
RNA: AUGUGGAAAAUCUCUAGCAGU
PepA-H6; single strand
  Kd: 2000 ± 600 nM
YagL-H6; single strand
  Kd: 4500 ± 300 nM

B2: 21 R- (ssRNA)
RNA: CUGCUAGAGAUUUUCCACAU
PepA-H6; single strand
  Kd: 600 ± 300 nM
YagL-H6; single strand
  Kd: 5000 ± 1200 nM

B3: hairpin (structured_RNA)
RNA: GCUCUAGAGCAUUAUGUUCAGAUAAGG
PepA-H6; hairpin
  Kd: 600 ± 400 nM
YagL-H6; hairpin
  Kd: 2400 ± 300 nM
